Patent US20250243243A1 (HONG KONG UNIVERSITY OF SCIENCE AND TECHNOLOGY, published 2025)
Blank lines part the entries; values can stand above or below the binder they belong to. Where no end group is shown, it is not given here.

What was measured:
CW peptides (KRRHPKKC) = target: T1, CW peptides (KRRHPKKC) (C-terminal cysteine added for coupling to thiopyridone-Sepharose 6B beads (pull-down)); test: ITC, 500 µM CW peptide injected into 50 µM GST-SURF4 (49-60), one set of sites model
T1 construct: CW motif of Shh (mouse residues 33-39, human 32-38) plus an added C-terminal Cys; On beads in the pull-downs, free in solution in ITC; also called Cardin-Weintraub peptide; synthetic CW peptides
T1 peptide: KRRHPKKC
Description: We utilized a commercial isothermal titration calorimeter (PEAQ-ITC system, MicroCal, Malvern Panalytical, United Kingdom) to perform titration experiments. […] During each ITC experiment, 19 injections of CW peptide into the calorimetric cell were carried out while duration of each injection was 4 s and the time between the injections was 150 s. The volume of each injection was 2 μL and the stirring speed was maintained at 750 rpm. Control experiments such as peptide to buffer and buffer to protein titrations were also done to account for non-specific interactions and heat of dilution. The binding constant (Kd) was derived by fitting the data with one set of site model using the MicroCal PEAQ-ITC analysis software.

GST = target: T2, GST (UniProt P08515 1-218 = GST); test: pull-down on beads carrying peptides of the predicted first luminal loop of SURF4, purified prey, anti-GST immunoblot
T2 construct: Control protein purified from E. coli; also called GST alone; purified GST
T2 sequence (P08515 whole entry): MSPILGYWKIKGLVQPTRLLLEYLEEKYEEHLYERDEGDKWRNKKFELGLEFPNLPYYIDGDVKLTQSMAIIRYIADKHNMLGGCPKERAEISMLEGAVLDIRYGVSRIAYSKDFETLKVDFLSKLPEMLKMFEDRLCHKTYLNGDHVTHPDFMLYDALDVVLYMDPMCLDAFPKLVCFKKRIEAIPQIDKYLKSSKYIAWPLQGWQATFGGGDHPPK

ShhN^1-198-HA = target: T3, ShhN^1-198-HA (mouse, UniProt Q62226 25-198); test: quantification of the co-immunoprecipitation (n=3)
T3 construct: also called ShhN-HA; not shown: C-terminal 3xHA tag
T3 sequence (Q62226 25-198): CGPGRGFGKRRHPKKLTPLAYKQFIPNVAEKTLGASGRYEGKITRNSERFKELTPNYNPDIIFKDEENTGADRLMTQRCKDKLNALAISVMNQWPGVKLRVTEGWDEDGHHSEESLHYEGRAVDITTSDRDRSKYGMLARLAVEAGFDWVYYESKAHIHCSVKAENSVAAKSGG
Source text: FIG. 3D. […] FIG. 3E. […] FIG. 3F. […] FIG. 3G. […] FIG. 3O.

Kd (CW peptides (KRRHPKKC)): 2350 nM
B1: GST-SURF4^49-60 (other)
chain: {GST}-SEQRDYIDTTWN
modifications: also: GST tag linker not given here
notes: Purified from E. coli; also called N-terminal GST-tagged SURF4^49-60; GST-tagged SURF4^49-60; not shown: glutathione S-transferase (GST) tag, N-terminal

binding result (GST): no binding
B2: SURF4 luminal peptides (SEQRDYIDTTWNC) (peptide)
peptide: SEQRDYIDTTWNC
modifications: not fully specified (residue 13)
notes: Immobilised on beads as bait; also called SURF4^49-61 peptides; SURF4 peptide

binding result (ShhN^1-198-HA): binds
B3: SURF4^ED-AA-Myc (receptor)
chain: GQNDLMGTAEDFADQFLRVTKQYLPHVARLCLISTFLEDGIRMWFQWSAQRAYIATTWNCGYLLASSFVFLNLLGQLTGCVLVLSRNFVQYACFGLFGIIALQTIAYSILWDLKFLMRNLALGGGLLLLLAESRSEGKSMFAGVPTMRESSPKQYMQLGGRVLLVLMFMTLLHFDASFFSIVQNIVGTALMILVAIGFKTKLAALTLVVWLFAINVYFNAFWTIPVYKPMHDFLKYDFFQTMSVIGGLLLVVALGPGGVSMDEKKKEW
notes: SURF4-3xMyc with E50, D53 and D56 changed to alanine; also called Myc-tagged SURF4^ED-AA; not shown: C-terminal 3xMyc tag
